Measured values as given in patent US20130167269A1.

B1: Full-length Cry6Aa1 protein (protein)
chain: MIIDSKTTLPRHSLIHTIKLNSNKKYGPGDMTNGNQFIISKQEWATIGAYIQTGLGLPVNEQQLRTHVNLSQDISIPSDFSQLYDVYCSDKTSAEWWNKNLYPLIIKSANDIASYGFKVAGDPSIKKDGYFKKLQDELDNIVDNNSDDDAIAKAIKDFKARCGILIKEAKQYEEAAKNIVTSLDQFLHGDQKKLEGVINIQKRLKEVQTALNQAHGESSPAHKELLEKVKNLKTTLERTIKAEQDLEKKVEYSFLLGPLLGFVVYEILENTAVQHIKNQIDEIKKQLDSAQHDLDRDVKIIGMLNSINTDIDNLYSQGQEAIKVFQKLQGIWATIGAQIENLRTTSLQEVQDSDDADEIQIELEDASDAWLVVAQEARDFTLNAYSTNSRQNLPINVISDSCNCSTTNMTSNQYSNPTTNMTSNQYMISHEYTSLPNNFMLSRNSNLEYKCPENNFMIYWYNNSDWYNNSDWYNN
modifications: 125I-iodinated (Pierce Iodination Beads, Na125I) in the saturation assay; positions not given; unlabeled when used as competitor
B2: Chymotrypsin-truncated Cry35Ab1 core protein (protein)
chain: MLDTNKVYEISNHANGLYAATYLSLDDSGVSLMNKNDDDIDDYNLKWFLFPIDDDQYIITSYAANNCKVWNVNNDKINVSTYSSTNSIQKWQIKANGSSYVIQSDNGKVLTAGTGQALGLIRLTDESSNNPNQQWNLTSVQTIQLPQKPIIDTKLKDYPKYSPTGNIDNGTSPQLMGWTLVPCIMVNDPNIDKNTQIKTTPYYILKKYQYWQRAVGSNVALRPHEKKSYTYEWGTEIDQKTTIINTLGFQINIDSGMKFDIPEVGGGTDEIKTQLNEELKIEYSHETKIMEKYQEQSEIDNPTDQSMNSIGFLTITSLELYRYNGSEIRIMQIQTSDNDTYNVTSYPNHQQALL
modifications: 125I-iodinated (Pierce Iodination Beads, Na125I) when used as the labeled ligand; positions not given; unlabeled when used as competitor

Legend:
[1] = target: Brush border membrane vesicle (BBMV) preparation from midguts of third instars of the western corn rootworm (Diabrotica virgifera virgifera LeConte) (Diabrotica virgifera virgifera)
[2] = target: Brush border membrane vesicle (BBMV) preparation from midguts of third instars of the western corn rootworm (Diabrotica virgifera virgifera LeConte) (Diabrotica virgifera virgifera); experiment: Homologous competition: unlabeled Cry35Ab1 (0-5,000 nM) against 5 nM 125I-Cry35Ab1 on BBMV (0.1 mg/ml); remaining about 50% considered nonspecific

Binder	Kd [1] [nM]	binding site concentration Bmax (pmole/ug BBMV) [1]	percent of bound 125I-Cry35Ab1 displaced at approximately 100 nM unlabeled Cry35Ab1 [2] [%]
B1	7.99	2.71	–
B2	11.7	5.19	> 50
